Here are results for 5 sequences from paper PMC5308003.

In this data set the target is T1, 6His-OxyR-Like (Magnetospirillum gryphiswaldense MSR-1) (UniProt V6F1S1).
T1 sequence: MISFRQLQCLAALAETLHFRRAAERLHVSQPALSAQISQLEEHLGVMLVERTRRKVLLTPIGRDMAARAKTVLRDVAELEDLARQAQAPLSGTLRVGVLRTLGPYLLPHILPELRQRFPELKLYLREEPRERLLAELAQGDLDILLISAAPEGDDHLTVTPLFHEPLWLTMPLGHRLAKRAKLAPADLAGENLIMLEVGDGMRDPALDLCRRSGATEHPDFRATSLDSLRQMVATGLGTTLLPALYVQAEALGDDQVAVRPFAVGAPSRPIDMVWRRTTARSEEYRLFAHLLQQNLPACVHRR
The data set is described as follows: EMSA. The note with it: EMSA: DIG Gel Shift Kit 2nd Gen (Roche) binding buffer with 1 uL poly[d(I-C)], 20 uL, 25 C 30 min, 5% native PAGE in 0.5x TBE; footprinting: 1000 ng labeled …. For orientation: A gel shift assay detects complexes by their altered migration in electrophoresis.
As to “CTTGATCCCGATAATCTGCTGATCGTGGTGGTCGGCAAGCCGGAAGGGGTCAACGGCACGCCCTAACCCGAAAAGACGGCGGCGGCAAAAATCAACGCCGCCCAGTGATCCGTTTCTCCCGTGACACCGTAGAAGGGTCATAAGGAGAAACGCGATGCCTCGGATCATCAAGATTGTTGCCGGCGCTTTGGCCACCTGTCTGGCGGCGACGGCCCCGGCCAAGGCCAGTGGTGCTGTCTTGGACT (double strand) [bsaA promoter EMSA probe]”, the binding result is on record as “no binding”.
As to “CGGCACTTGTTCCATGAACTTCGACCATATCGCTCTCCCATTCAACCAATTGTTAGCCTTGGGCTTGGCGATATTCTAACCGTTCCTCCATTCAACTCATACAGATGTGGTTTAGAAGCTTTTTAATAAATACTTGAGGGTCCGGAAATCATTAGCCGAACCCTCAATAGCCTCAGCTATGCAGGCCGGGGGCTTCATGTCCGGTGCGGGCCACGTATTCGGTGTAGCCGC (double strand) [katG promoter EMSA probe]”, the binding result was “no binding”.
As for “TGGGCTGTTGCTTGTCTTATCTTTTTTCATTTCCGCCTCACAGGCTGAATTATCTGAAAAGGAAATAGATGAGGATCAGGACTGGGATGGGAACGCCAACCAGCCAGAGAAGGCCGTATTTCATTTCCTACCTCGCTGTTCTGCCGGTGTGTCATGGGGCAATGGAGCCGTCCTGATACAAGA (double strand) [katE promoter EMSA probe]”, the binding result was “no binding”.
“CAGGGCAGGATGATGTGAGTGCGTAGACAGATAGGTAAACCAACCTTCCCTTTTAGGCAAGGCGTTTCGCCGTCAAAAATGCTTATATTGCAATGCAATAATGGCAATTAACTGGATAATAGTTATTTATCAAAACCTAACCAGATGGGCGGGCAACGGGTGGTGCGATGCAGCAATCCTTTTGCCTCATCGGGTTAGCGCCTGACAGGGATATTGGGAGCGGGCAAACACTTGAAAACCCACCCGGCGGACAAAATCGCGCCAACCGGTCCATTTCACAATGCACCCATTCAGAGCAAA (double strand) [pdh promoter EMSA probe]”: the binding entry is listed as “binds”.
Turning to “GGGCGAAGAATGGACATCGTCGTCTCCATTAGGCTGTTGTCCGTGATTGAGACTATGCCCCCTTCTTTGTGATAATTCTAATCGATATATCTTGAGATATTGATAGTAAATTGTTATCAGTGATCCATGATCAGCTTTCGCCAATTACAATGCCT (double strand) [oxyR-Like promoter EMSA probe]”, the binding entry was “binds”.
